T1: FtsA (Escherichia coli, UniProt P0ABH0 1-420)
T1 sequence: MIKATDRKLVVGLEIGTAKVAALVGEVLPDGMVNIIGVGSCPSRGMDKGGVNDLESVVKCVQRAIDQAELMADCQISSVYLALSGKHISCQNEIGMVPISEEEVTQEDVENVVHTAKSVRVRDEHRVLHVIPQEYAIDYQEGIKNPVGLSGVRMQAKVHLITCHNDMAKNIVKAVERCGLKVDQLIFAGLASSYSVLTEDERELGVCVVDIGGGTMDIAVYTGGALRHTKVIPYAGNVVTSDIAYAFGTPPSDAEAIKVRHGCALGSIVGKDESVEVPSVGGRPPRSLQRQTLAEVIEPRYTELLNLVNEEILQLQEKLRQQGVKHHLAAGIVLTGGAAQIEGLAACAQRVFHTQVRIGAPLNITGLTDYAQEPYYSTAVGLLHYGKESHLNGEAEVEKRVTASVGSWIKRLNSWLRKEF

B1: FtsZ (natural protein)
chain: MFEPMELTNDAVIKVIGVGGGGGNAVEHMVRERIEGVEFFAVNTDAQALRKTAVGQTIQIGSGITKGLGAGANPEVGRNAADEDRDALRAALEGADMVFIAAGMGGGTGTGAAPVVAEVAKDLGILTVAVVTKPFNFEGKKRMAFAEQGITELSKHVDSLITIPNDKLLKVLGRGISLLDAFGAANDVLKGAVQGIAELITRPGLMNVDFADVRTVMSEMGYAMMGSGVASGEDRAEEAAEMAISSPLLEDIDLSGARGVLVNITAGFDLRLDEFETVGNTIRAFASDNATVVIGTSLDPDMNDELRVTVVATGIGMDKRPEITLVTNKQVQQPVMDRYQQHGMAPLTQEQKPVAKVVNDNAPQTAKEPDYLDIPAFLRKQAD
B2: human glutathione transferase M1a-1a (enzyme)
chain: MPMILGYWDIRGLAHAIRLLLEYTDSSYEEKKYTMGDAPDYDRSQWLNEKFKLGLDFPNLPYLIDGAHKITQSNAILCYIARKHNLCGETEEEKIRVDILENQTMDNHMQLGMICYNPEFEKLKPKYLEELPEKLKLYSEFLGKRPWFAGNKITFVDFLVYDVLDLHRIFEPKCLDAFPNLKDFISRFEGLEKISAYMKSSRFLPRPVFSKMAVWGNK
B3: MinC (natural protein)
chain: MSNTPIELKGSSFTLSVVHLHEAEPKVIHQALEDKIAQAPAFLKHAPVVLNVSALEDPVNWSAMHKAVSATGLRVIGVSGCKDAQLKAEIEKMGLPILTEGKEKAPRPAPTPQAPAQNTTPVTKTRLIDTPVRSGQRIYAPQCDLIVTSHVSAGAELIADGNIHVYGMMRGRALAGASGDRETQIFCTNLMAELVSIAGEYWLSDQIPAEFYGKAARLQLVENALTVQPLN
B4: SNX16 PX-CC unit (domain or fragment)
chain: DRPSTPTILGYEVMEERAKFTVYKILVKKTPEESWVVFRRYTDFSRLNDKLKEMFPGFRLALPPKRWFKDNYNADFLEDRQLGLQAFLQNLVAHKDIANCLAVREFLCLDDPPGPFDSLEESRAFCETLEETNYRLQKELLEKQKEMESLKKLLSEKQLHIDTLENRIRTLSLEPEESLDVSETEGEQILKVESSALEVDQDVLDEESRADNKPCLSFSEPENAVSEIEVAEVAYDAEED

Data set [1] concerns the target PBP2a (Staphylococcus aureus (MRSA)).
Data set [2] addresses BECN1 coiled-coil domain (Homo sapiens) (UniProt Q14457). Conditions: cited from earlier work.
A further data set addresses Ras (UniProt P01112).
Data set [3] addresses Beclin-1 lacking the BARA domain (human).
Data set [4] concerns the target radical-generating subunit of the class I ribonucleotide reductase of Leeuwenhoekiella blandensis (Leeuwenhoekiella blandensis). The data set is described as follows: multi-detection SEC, GEMMA, DLS.
The target of data set [5] is procaspase-2 phosphorylated at S139 and S164 (human) (UniProt P42575). In words: fluorescence polarisation + native gel or EMSA + SEC + AUC.
Sequence of procaspase-2 phosphorylated at S139 and S164 (human) (P42575 whole entry): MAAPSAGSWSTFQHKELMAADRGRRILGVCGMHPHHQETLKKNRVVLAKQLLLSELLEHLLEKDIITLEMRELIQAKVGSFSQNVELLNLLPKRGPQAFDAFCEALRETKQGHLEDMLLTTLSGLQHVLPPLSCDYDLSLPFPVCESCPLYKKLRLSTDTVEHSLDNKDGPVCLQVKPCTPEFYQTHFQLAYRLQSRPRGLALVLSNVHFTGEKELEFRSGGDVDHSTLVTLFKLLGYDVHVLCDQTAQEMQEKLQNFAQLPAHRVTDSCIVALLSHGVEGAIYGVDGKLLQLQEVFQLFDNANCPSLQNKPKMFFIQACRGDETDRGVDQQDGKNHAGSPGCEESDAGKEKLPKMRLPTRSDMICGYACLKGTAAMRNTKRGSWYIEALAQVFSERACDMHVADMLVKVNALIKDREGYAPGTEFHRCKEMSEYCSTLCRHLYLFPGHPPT
Another data set deals with T1, FtsA. The data set is described as follows: co-sedimentation.
Data set [6] deals with the molecule itself. In words: SEC + other: dynamic light scattering, HDX-MS, spectroscopy.
In the data set “FtsZ” the target is B1. The data set is described as follows: co-sedimentation.
The data set “crystal structure” concerns the molecule itself. The data set is described as follows: crystal structure.

BLIP-II N50A:Y113H (natural protein) yielded a Kd in data set [1] of 0.05 µM.
Turning to “BECN1 coiled-coil domain (from UniProt Q14457)”, in [2], the dissociation constant Kd is 48 µM.
Take “Ras (from UniProt P01112 1-189) (natural protein)”: in the data set with Ras, the percent of the Ras population forming dimers is less than 10%.
As for “Beclin-1 lacking the BARA domain (domain or fragment)”, the fold weaker homodimer KD than the full-length protein in [3] is 3.5 fold.
“radical-generating subunit of the class I ribonucleotide reductase of Leeuwenhoekiella blandensis (enzyme)” came in with a stoichiometry N in [4] of 4.
With “14-3-3 protein (from UniProt P63104 1-245) (natural protein)”, the stoichiometry N in [5] stood at 1.
With B1, the binding result in the data set with FtsA is “binds”.
As for B2, in data set [6], the “stoichiometry N” value worked out at 2.
In the case of B3, the binding result with FtsZ was “binds”.
On to B4, for which the “stoichiometry N” value in “crystal structure” amounted to 2.

The values are drawn from PMC6247239 (Protein Science : A Publication of the Protein Society, 2018).
